We go through eight compounds from publication PMC8163982, “Partial agonism improves the anti-hyperglycaemic efficacy of an oxyntomodulin-derived GLP-1R/GCGR co-agonist” (Molecular Metabolism, 2021).

Where a SMILES comes first, the peptide text is derived from it. [ ]: non-standard residue; d: D form. Aib = CC(C)(N)C(=O)O

One test relates to Huh7-GCGR cells. Kind of test: Fluorescent TMR-ligand internalisation in Huh7-GCGR cells (high content imaging). It counts as cell-based, human. As to conditions: 100 nM, 30 min, n = 4. On the procedure:
Huh7-GCGR cells were seeded in black clear-bottom plates coated with 0.1% poly-D-lysine and assayed 24 h later. Then 100 nM of fluorescent TMR-conjugated agonist or vehicle was applied for 30 min. The cells were then washed with cold HBSS and incubated for 5 min in cold acetic acid +150 mM of NaCl buffer at a pH of 2.9 to strip surface ligands. After a final wash, the cells were resuspended in HBSS and the fluorescent ligand uptake was measured and quantified by high content imaging as described in Section 2.9.

The target in test [1] is GCGR-SmBiT (glucagon receptor) (UniProt P47871).
A further test concerns mouse pancreatic islets. The experiment in a line: Fluorescent TMR-ligand uptake in mouse pancreatic islets. It counts as cell-based. Particulars: 100 nM, 30 min, confocal imaging, n = 2. On the procedure:
Mouse pancreatic islets were isolated and left to recover overnight before being immobilised with Matrigel onto glass-bottom Mattek dishes and stimulated with 100 nM of the indicated TMR-modified agonist for 30 min. Z stacks were recorded for the whole islet volume on a Zeiss LSM780 inverted confocal microscope with a 20× air objective and 1 μm of separation between optical slices.

For test [2], the target named is GCGR-SmBiT (glucagon receptor) (UniProt P47871). The experiment in a line: split reporter (BiFC, NanoBiT); HEK293T cells co-transfected with receptor-SmBiT and LgBiT-mini-G or LgBiT-β-arrestin-2; in HBSS with furimazine, 37 °C; 5 min baseline, then peptide agonist added and luminescence recorded for 30 min; K@[max] from one-phase (mini-Gs) or bi-exponential (β-arrestin-2) fits at a single maximal agonist concentration.

Test [3] deals with GLP-1R-SmBiT (glucagon-like peptide-1 receptor) (UniProt P43220). The description is as above.
Test [4] concerns the target T1, GCGR (Homo sapiens, UniProt P47871). Kind of test: NanoBiT mini-Gs recruitment to GCGR-SmBiT in HEK293T cells. More on the design: expressed in transfected cells; host or cells: HEK293T. It counts as cell-based.
For test [5], the target named is T1, GCGR. Kind of test: NanoBiT β-arrestin-2 recruitment to GCGR-SmBiT in HEK293T cells. More on the design: expressed in transfected cells; host or cells: HEK293T. It counts as cell-based. For orientation: Activated receptors often draw arrestin, which recruitment assays turn into a signal.
In test [6] the target is GLP-1R-SmBiT (glucagon-like peptide-1 receptor) (UniProt P43220).

Chain of GCG-H3 (peptide) (peptide): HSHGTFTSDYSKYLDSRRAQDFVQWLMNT
T1 sequence (P47871 26-477): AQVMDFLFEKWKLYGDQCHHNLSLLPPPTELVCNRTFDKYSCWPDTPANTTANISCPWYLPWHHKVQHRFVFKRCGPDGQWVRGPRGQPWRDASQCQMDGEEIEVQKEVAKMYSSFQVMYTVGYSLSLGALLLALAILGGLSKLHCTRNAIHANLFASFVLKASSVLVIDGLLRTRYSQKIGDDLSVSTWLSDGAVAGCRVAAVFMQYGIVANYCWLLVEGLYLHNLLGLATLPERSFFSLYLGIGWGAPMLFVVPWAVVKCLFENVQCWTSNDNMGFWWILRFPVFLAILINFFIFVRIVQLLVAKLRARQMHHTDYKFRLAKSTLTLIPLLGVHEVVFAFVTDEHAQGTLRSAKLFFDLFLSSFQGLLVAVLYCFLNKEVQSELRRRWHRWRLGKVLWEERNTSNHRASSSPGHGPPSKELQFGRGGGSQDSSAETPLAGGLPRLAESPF
Chain of GCGR-SmBiT (glucagon receptor) (P47871 26-477): as above
Chain of GLP-1R-SmBiT (glucagon-like peptide-1 receptor) (P43220 24-463): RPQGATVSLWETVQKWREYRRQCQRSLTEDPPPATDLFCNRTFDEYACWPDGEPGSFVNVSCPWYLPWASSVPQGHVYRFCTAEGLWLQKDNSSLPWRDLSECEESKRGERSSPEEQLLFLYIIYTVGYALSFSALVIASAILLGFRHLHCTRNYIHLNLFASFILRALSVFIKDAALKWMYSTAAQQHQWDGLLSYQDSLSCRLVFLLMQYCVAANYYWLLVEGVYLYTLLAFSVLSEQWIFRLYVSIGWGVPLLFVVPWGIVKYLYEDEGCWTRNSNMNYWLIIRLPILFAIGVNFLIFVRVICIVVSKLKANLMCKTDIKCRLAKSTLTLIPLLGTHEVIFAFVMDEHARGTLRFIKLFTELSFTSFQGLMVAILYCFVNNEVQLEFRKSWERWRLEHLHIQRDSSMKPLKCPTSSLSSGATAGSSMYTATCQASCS

On to “HXHGTFTSDYSKYLDAKRAQEFIEWLLAGHHHHHPS(K-TMR)W [SRB103H-TMR, SRB103H analogue conjugated to tetramethylrhodamine (TMR) close to the C-terminus]”, for which the “TMR-ligand uptake in Huh7-GCGR cells” value in the test with Huh7-GCGR cells was “greater uptake”.
Consider GCG-H3 (peptide), for which, in test [1], the Emax of mini-Gs recruitment to GCGR-SmBiT (NanoBiT, HEK293T, AUC over 30 min) stood at 66 % max; the Emax of β-arrestin-2 recruitment to GCGR-SmBiT (NanoBiT, HEK293T, AUC over 30 min) came out at 54 % max; the pEC50 of mini-Gs recruitment to GCGR-SmBiT (NanoBiT, HEK293T, AUC over 30 min) is 6.8 pEC50 (M); the pEC50 of β-arrestin-2 recruitment to GCGR-SmBiT (NanoBiT, HEK293T, AUC over 30 min) is 6.3 pEC50 (M).
As to “HXQGTFTSDYSKYLDAKRAQEFIEWLLAGHHHHHPS(K-TMR)W [SRB103Q-TMR, SRB103Q analogue conjugated to tetramethylrhodamine (TMR) close to the C-terminus]”, the “TMR agonist uptake in mouse islets” value with mouse pancreatic islets was “somewhat reduced compared to SRB103H-TMR”.
In test [2], LgBiT-mini-Gs (domain or fragment) displayed a K@[max] with GCG (association rate constant at maximal agonist stimulation) of 0.17 min⁻¹, a K@[max] with GCG-AIB2 (association rate constant at maximal agonist stimulation) of 0.11 min⁻¹, a K@[max] with GCG-AIB2H3 (association rate constant at maximal agonist stimulation) of 0.13 min⁻¹ and a K@[max] with GCG-H3 (association rate constant at maximal agonist stimulation) of 0.13 min⁻¹. In addition, in test [2], the K@[max] with SRB103H (association rate constant at maximal agonist stimulation) was determined as 0.14 min⁻¹ and the K@[max] with SRB103Q (association rate constant at maximal agonist stimulation) is 0.13 min⁻¹. In test [3], this compound registered a K@[max] with GLP-1-AIB2 (association rate constant at maximal agonist stimulation) of 0.21 min⁻¹, a K@[max] with SRB103H (association rate constant at maximal agonist stimulation) of 0.93 min⁻¹ and a K@[max] with SRB103Q (association rate constant at maximal agonist stimulation) of 0.7 min⁻¹.
By Emax is commonly meant the greatest response seen or fitted, relative to the assay's reference. On to `CSCC[C@H](NC(=O)[C@H](CC(C)C)NC(=O)[C@H](Cc1c[nH]c2ccccc12)NC(=O)[C@H](CCC(N)=O)NC(=O)[C@@H](NC(=O)[C@H](Cc1ccccc1)NC(=O)[C@H](CC(=O)O)NC(=O)[C@H](CCC(N)=O)NC(=O)[C@H](C)NC(=O)[C@H](CCCNC(=N)N)NC(=O)[C@H](CCCNC(=N)N)NC(=O)[C@H](CO)NC(=O)[C@H](CC(=O)O)NC(=O)[C@H](CC(C)C)NC(=O)[C@H](Cc1ccc(O)cc1)NC(=O)[C@H](CCCCN)NC(=O)[C@H](CO)NC(=O)[C@H](Cc1ccc(O)cc1)NC(=O)[C@H](CC(=O)O)NC(=O)[C@H](CO)NC(=O)[C@@H](NC(=O)[C@H](Cc1ccccc1)NC(=O)[C@@H](NC(=O)CNC(=O)[C@H](Cc1c[nH]cn1)NC(=O)C(C)(C)NC(=O)[C@@H](N)Cc1c[nH]cn1)[C@@H](C)O)[C@@H](C)O)C(C)C)C(=O)N[C@@H](CC(N)=O)C(=O)N[C@H](C(=O)O)[C@@H](C)O` [GCG-AIB2H3] (H-H[Aib]HGTFTSDYSKYLDSRRAQDFVQWLMNT-OH), for which the maximal effect (Emax) on GCGR [4] (HEK-293T, read-out: GCGR Mini-Gs Emax) was 74 ± 5%; on GCGR [5] (HEK-293T, read-out: GCGR β-arrestin-2 Emax), 53 ± 2%. In addition, the EC50 was 100 nM at GCGR [4] (read-out: GCGR Mini-Gs pEC50 (converted)) and 251 nM at GCGR [5] (read-out: GCGR β-arrestin-2 pEC50 (converted)).
Regarding GLP-1-AIB2 (peptide), in test [6], the Emax of mini-Gs recruitment to GLP-1R-SmBiT (NanoBiT, HEK293T, AUC over 30 min) was 96 % max; the Emax of β-arrestin-2 recruitment to GLP-1R-SmBiT (NanoBiT, HEK293T, AUC over 30 min) stood at 68 % max; the pEC50 of mini-Gs recruitment to GLP-1R-SmBiT (NanoBiT, HEK293T, AUC over 30 min) was 7.9 pEC50 (M); the pEC50 of β-arrestin-2 recruitment to GLP-1R-SmBiT (NanoBiT, HEK293T, AUC over 30 min) is 7.7 pEC50 (M).
Turning to Glucagon-AIB2 (GCG-AIB2) (peptide), in test [1], the Emax of mini-Gs recruitment to GCGR-SmBiT (NanoBiT, HEK293T, AUC over 30 min) was found to be 54 % max; the Emax of β-arrestin-2 recruitment to GCGR-SmBiT (NanoBiT, HEK293T, AUC over 30 min) came out at 25 % max; the pEC50 of mini-Gs recruitment to GCGR-SmBiT (NanoBiT, HEK293T, AUC over 30 min) was 6.7 pEC50 (M); the pEC50 of β-arrestin-2 recruitment to GCGR-SmBiT (NanoBiT, HEK293T, AUC over 30 min) is 6.2 pEC50 (M).
With GCG-AIB2H3 (peptide), in test [1], the Emax of mini-Gs recruitment to GCGR-SmBiT (NanoBiT, HEK293T, AUC over 30 min) came out at 74 % max; the Emax of β-arrestin-2 recruitment to GCGR-SmBiT (NanoBiT, HEK293T, AUC over 30 min) came to 53 % max; the pEC50 of mini-Gs recruitment to GCGR-SmBiT (NanoBiT, HEK293T, AUC over 30 min) is 7 pEC50 (M); the pEC50 of β-arrestin-2 recruitment to GCGR-SmBiT (NanoBiT, HEK293T, AUC over 30 min) is 6.6 pEC50 (M).
